Measured values from patent US20140135264A1 (CLEVELAND CLINIC FOUNDATION, published 2014).

How the values were obtained:
[1] = biological target: αvβ3 integrin, wild type, on mouse lung endothelial cells (WT EC) (mouse) (UniProt P43406); assay: flow cytometry, FITC-fibrinogen on WT mouse lung EC, 1 mM MnCl2 against unstimulated cells
[2] = biological target: DiYF β3 integrin (αvβ3 with β3 tyrosines 747 and 759 substituted for phenylalanines), on DiYF mouse lung endothelial cells (mouse) (UniProt P43406); assay: flow cytometry, FITC-fibrinogen on DiYF mouse lung EC, 1 mM MnCl2 against unstimulated cells
[3] = biological target: DiYF β3 integrin (αvβ3 with β3 tyrosines 747 and 759 substituted for phenylalanines), on DiYF mouse lung endothelial cells (mouse) (UniProt P43406); assay: flow cytometry, FITC-fibrinogen on DiYF mouse lung EC, 20 ng/ml VEGF against unstimulated cells
[4] = biological target: αvβ3 integrin, wild type, on mouse lung endothelial cells (WT EC) (mouse) (UniProt P43406); assay: flow cytometry, FITC-fibrinogen on WT mouse lung EC, 20 ng/ml VEGF against unstimulated cells (printed as 'at least')
[5] = biological target: VEGF receptor-2 on mouse lung endothelial cells (mouse) (UniProt P35918); assay: cell-based or functional assay
VEGF receptor-2 on mouse lung endothelial cells (mouse), sequence (P35918 20-1345): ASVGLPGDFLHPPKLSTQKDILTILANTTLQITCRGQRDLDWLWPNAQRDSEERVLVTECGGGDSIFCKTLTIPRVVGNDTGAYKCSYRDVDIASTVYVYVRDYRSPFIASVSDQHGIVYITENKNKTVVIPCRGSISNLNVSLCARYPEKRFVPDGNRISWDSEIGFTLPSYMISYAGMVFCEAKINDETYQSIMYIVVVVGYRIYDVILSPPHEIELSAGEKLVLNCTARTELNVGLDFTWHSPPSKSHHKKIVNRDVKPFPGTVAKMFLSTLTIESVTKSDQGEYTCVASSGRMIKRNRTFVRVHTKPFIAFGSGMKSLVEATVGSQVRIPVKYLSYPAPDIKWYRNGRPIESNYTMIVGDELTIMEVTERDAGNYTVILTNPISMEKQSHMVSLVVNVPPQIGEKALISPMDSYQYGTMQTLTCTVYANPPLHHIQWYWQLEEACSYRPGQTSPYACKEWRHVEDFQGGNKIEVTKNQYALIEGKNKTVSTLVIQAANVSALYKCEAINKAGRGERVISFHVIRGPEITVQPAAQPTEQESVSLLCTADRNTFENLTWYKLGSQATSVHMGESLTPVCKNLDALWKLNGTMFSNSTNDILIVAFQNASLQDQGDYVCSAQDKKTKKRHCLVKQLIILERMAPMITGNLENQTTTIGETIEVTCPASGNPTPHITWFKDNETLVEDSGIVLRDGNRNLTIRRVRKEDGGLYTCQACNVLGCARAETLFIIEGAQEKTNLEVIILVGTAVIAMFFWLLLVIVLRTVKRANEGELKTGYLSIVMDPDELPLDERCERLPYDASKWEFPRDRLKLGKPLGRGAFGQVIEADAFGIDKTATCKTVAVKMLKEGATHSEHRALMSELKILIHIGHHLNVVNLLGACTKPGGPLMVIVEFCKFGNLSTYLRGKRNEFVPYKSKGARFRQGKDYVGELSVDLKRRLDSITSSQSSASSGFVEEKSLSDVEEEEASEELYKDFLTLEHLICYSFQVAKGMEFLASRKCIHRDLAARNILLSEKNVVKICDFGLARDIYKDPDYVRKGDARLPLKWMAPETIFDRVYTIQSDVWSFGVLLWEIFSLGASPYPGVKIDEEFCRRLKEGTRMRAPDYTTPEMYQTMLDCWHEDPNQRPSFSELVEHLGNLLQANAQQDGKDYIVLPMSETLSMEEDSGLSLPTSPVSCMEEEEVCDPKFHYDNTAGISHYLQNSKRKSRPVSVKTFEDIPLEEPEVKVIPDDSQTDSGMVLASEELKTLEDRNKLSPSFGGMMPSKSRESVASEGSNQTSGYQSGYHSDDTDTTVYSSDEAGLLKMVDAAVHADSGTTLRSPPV

[6] = biological target: αvβ3 integrin on human endothelial cells (HUVEC; vasculature of human prostate tissue) (human) (UniProt P06756); assay: flow cytometry, WOW-1 Fab on HUVEC, VEGF-A165 against resting cells
[7] = biological target: αvβ3 integrin, wild type, on mouse lung endothelial cells (WT EC) (mouse) (UniProt P43406); assay: flow cytometry, WOW-1 Fab on WT mouse lung EC, 1 mM MnCl2 against unstimulated cells
[8] = biological target: DiYF β3 integrin (αvβ3 with β3 tyrosines 747 and 759 substituted for phenylalanines), on DiYF mouse lung endothelial cells (mouse) (UniProt P43406); assay: flow cytometry, WOW-1 Fab on DiYF mouse lung EC, 1 mM MnCl2 against unstimulated cells
[9] = biological target: αvβ3 integrin, wild type, on mouse lung endothelial cells (WT EC) (mouse) (UniProt P43406); assay: flow cytometry, WOW-1 Fab on WT mouse lung EC, 20 ng/ml VEGF against unstimulated cells
[10] = biological target: DiYF β3 integrin (αvβ3 with β3 tyrosines 747 and 759 substituted for phenylalanines), on DiYF mouse lung endothelial cells (mouse) (UniProt P43406); assay: flow cytometry, WOW-1 Fab on DiYF mouse lung EC, 20 ng/ml VEGF against unstimulated cells
[11] = biological target: αvβ3 integrin on human endothelial cells (HUVEC; vasculature of human prostate tissue) (human) (UniProt P06756); assay: immunohistochemistry, WOW-1 staining density, prostate carcinoma against normal prostate tissue
[12] = biological target: DiYF β3 integrin (αvβ3 with β3 tyrosines 747 and 759 substituted for phenylalanines), on DiYF mouse lung endothelial cells (mouse) (UniProt P43406); assay: cell-based or functional assay
[13] = biological target: VEGFR-2 on human endothelial cells (HUVEC; vasculature of human prostate tissue) (human, UniProt P35968 20-1356); assay: cell-based or functional assay
VEGFR-2 on human endothelial cells (HUVEC; vasculature of human prostate tissue), sequence (P35968 20-1356): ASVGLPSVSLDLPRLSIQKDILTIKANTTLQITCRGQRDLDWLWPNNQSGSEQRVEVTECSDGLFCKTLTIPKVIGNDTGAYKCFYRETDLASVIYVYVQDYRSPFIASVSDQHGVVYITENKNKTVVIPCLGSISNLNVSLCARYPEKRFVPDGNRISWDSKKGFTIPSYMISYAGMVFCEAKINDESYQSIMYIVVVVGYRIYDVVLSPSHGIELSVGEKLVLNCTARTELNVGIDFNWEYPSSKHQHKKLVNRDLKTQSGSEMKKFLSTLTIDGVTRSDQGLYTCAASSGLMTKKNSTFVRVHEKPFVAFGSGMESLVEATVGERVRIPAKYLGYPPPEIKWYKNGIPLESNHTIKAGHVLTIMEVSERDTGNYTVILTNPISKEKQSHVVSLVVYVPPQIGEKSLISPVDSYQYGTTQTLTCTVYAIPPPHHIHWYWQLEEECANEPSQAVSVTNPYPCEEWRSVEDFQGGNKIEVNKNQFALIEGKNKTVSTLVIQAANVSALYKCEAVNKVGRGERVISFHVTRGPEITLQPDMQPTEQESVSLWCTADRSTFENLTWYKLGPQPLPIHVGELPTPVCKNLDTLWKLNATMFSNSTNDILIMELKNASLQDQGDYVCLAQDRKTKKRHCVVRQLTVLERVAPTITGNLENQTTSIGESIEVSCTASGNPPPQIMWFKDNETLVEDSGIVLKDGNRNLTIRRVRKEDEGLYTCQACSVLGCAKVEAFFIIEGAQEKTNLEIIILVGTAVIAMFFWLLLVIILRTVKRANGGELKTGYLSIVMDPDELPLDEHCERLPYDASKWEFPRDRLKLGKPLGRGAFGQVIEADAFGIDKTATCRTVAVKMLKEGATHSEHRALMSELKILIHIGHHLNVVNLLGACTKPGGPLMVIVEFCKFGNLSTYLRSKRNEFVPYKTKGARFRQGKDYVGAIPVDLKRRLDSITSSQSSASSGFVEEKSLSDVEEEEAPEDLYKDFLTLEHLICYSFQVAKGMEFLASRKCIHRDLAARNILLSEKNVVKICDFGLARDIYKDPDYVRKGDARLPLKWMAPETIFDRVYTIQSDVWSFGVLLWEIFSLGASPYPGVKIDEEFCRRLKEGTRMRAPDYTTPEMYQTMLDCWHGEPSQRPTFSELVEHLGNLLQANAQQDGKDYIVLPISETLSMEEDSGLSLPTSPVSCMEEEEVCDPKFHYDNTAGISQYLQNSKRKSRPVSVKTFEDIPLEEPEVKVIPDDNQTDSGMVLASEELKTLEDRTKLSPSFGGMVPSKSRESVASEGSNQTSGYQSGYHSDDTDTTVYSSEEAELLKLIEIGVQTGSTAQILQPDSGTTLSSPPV

Molecule: Fluorescein isothiocyanate (FITC)-labeled fibrinogen (ligand)
- fold increase of binding [1]: > 40 fold
- fold increase of binding [2]: 17 fold
- fold increase of binding [3]: 3 fold
- fold increase of binding [4]: 6 fold

Molecule: VEGF-A165 (ligand)
- VEGFR-2 phosphorylation in DiYF EC (immunoprecipitation, anti-phosphotyrosine blot) [5]: 2.5 fold
- VEGFR-2 phosphorylation in WT EC (immunoprecipitation, anti-phosphotyrosine blot) [5]: 6 fold

Molecule: WOW-1 Fab
- fold increase of binding [6]: 6 fold
- fold increase of binding [7]: 30 fold
- fold increase of binding [8]: 14 fold
- fold increase of binding [9]: 9 fold
- fold increase of binding [10]: 3.5 fold
- fold increase of WOW-1 density [11]: 2.7 fold

Molecule: vitronectin (ligand)
- fold decrease in adhesion of DiYF EC to vitronectin-coated wells, against WT EC [12]: 2 fold
- fold decrease in spreading of DiYF EC on vitronectin-coated wells, against WT EC [12]: 4 fold

B1: αvβ3 integrin on human endothelial cells (HUVEC; vasculature of human prostate tissue) (receptor)
chain 1: FNLDVDSPAEYSGPEGSYFGFAVDFFVPSASSRMFLLVGAPKANTTQPGIVEGGQVLKCDWSSTRRCQPIEFDATGNRDYAKDDPLEFKSHQWFGASVRSKQDKILACAPLYHWRTEMKQEREPVGTCFLQDGTKTVEYAPCRSQDIDADGQGFCQGGFSIDFTKADRVLLGGPGSFYWQGQLISDQVAEIVSKYDPNVYSIKYNNQLATRTAQAIFDDSYLGYSVAVGDFNGDGIDDFVSGVPRAARTLGMVYIYDGKNMSSLYNFTGEQMAAYFGFSVAATDINGDDYADVFIGAPLFMDRGSDGKLQEVGQVSVSLQRASGDFQTTKLNGFEVFARFGSAIAPLGDLDQDGFNDIAIAAPYGGEDKKGIVYIFNGRSTGLNAVPSQILEGQWAARSMPPSFGYSMKGATDIDKNGYPDLIVGAFGVDRAILYRARPVITVNAGLEVYPSILNQDNKTCSLPGTALKVSCFNVRFCLKADGKGVLPRKLNFQVELLLDKLKQKGAIRRALFLYSRSPSHSKNMTISRGGLMQCEELIAYLRDESEFRDKLTPITIFMEYRLDYRTAADTTGLQPILNQFTPANISRQAHILLDCGEDNVCKPKLEVSVDSDQKKIYIGDDNPLTLIVKAQNQGEGAYEAELIVSIPLQADFIGVVRNNEALARLSCAFKTENQTRQVVCDLGNPMKAGTQLLAGLRFSVHQQSEMDTSVKFDLQIQSSNLFDKVSPVVSHKVDLAVLAAVEIRGVSSPDHVFLPIPNWEHKENPETEEDVGPVVQHIYELRNNGPSSFSKAMLHLQWPYKYNNNTLLYILHYDIDGPMNCTSDMEINPLRIKISSLQTTEKNDTVAGQGERDHLITKRDLALSEGDIHTLGCGVAQCLKIVCQVGRLDRGKSAILYVKSLLWTETFMNKENQNHSYSLKSSASFNVIEFPYKNLPIEDITNSTLVTTNVTWGIQPAPMPVPVWVIILAVLAGLLLLAVLVFVMYRMGFFKRVRPPQEEQEREQLQPHENGEGNSET
chain 2: GPNICTTRGVSSCQQCLAVSPMCAWCSDEALPLGSPRCDLKENLLKDNCAPESIEFPVSEARVLEDRPLSDKGSGDSSQVTQVSPQRIALRLRPDDSKNFSIQVRQVEDYPVDIYYLMDLSYSMKDDLWSIQNLGTKLATQMRKLTSNLRIGFGAFVDKPVSPYMYISPPEALENPCYDMKTTCLPMFGYKHVLTLTDQVTRFNEEVKKQSVSRNRDAPEGGFDAIMQATVCDEKIGWRNDASHLLVFTTDAKTHIALDGRLAGIVQPNDGQCHVGSDNHYSASTTMDYPSLGLMTEKLSQKNINLIFAVTENVVNLYQNYSELIPGTTVGVLSMDSSNVLQLIVDAYGKIRSKVELEVRDLPEELSLSFNATCLNNEVIPGLKSCMGLKIGDTVSFSIEAKVRGCPQEKEKSFTIKPVGFKDSLIVQVTFDCDCACQAQAEPNSHRCNNGNGTFECGVCRCGPGWLGSQCECSEEDYRPSQQDECSPREGQPVCSQRGECLCGQCVCHSSDFGKITGKYCECDDFSCVRYKGEMCSGHGQCSCGDCLCDSDWTGYYCNCTTRTDTCMSSNGLLCSGRGKCECGSCVCIQPGSYGDTCEKCPTCPDACTFKKECVECKKFDRGALHDENTCNRYCRDEIESVKELKDTGKDAVNCTYKNEDDCVVRFQYYEDSSGKSILYVVEEPECPKGPDILVVLLSVMGAILLIGLAALLIWKLLITIHDRKEFAKFEEERARAKWDTANNPLYKEATSTFTNITYRGT
- fold decrease in VEGFR-2 phosphorylation in response to VEGF in HUVEC after β3 siRNA [13]: ~3 fold
